# ± gives the half width of the 95% confidence interval.
# Experiment: folding stability dG unfold (combined trypsin and chymotrypsin); higher = more stable
# Method in brief: (§1)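 Sequencing followed digestion of designed mini-proteins with trypsin and chymotrypsin, each at 11 concentrations in threefold dilutions together with a no-protease condition. The mini-proteins were under 80 residues, had no cysteine, sat in a PA-tagged cDNA display construct, and were kept only if AlphaFold2 dimer inter-PAE was above 15. From the counts, Bayesian fitting gave K50, and unfolding free energy was derived against a sequence-predicted unfolded-state K50 and a shared folded-state K50, per protease or combined.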
row,Sequence,folding stability dG unfold
1,SAGGMPGIRPVLRIRARVRFRGPEREEEIEIELHPEALEAGLTAEELARLRAEELGYEVEIEEIEIESAGGS [r16_554_TrMRF],1.84 ± 0.1 kcal/mol
2,EEEVEELAKKLEEELRKKLRELFPEMSEEDIKIEEIEVEKTVTVEVNGEKKEIKVKVKIKMSEEVLERLKKS [r1_299_TrROS_Hall],1.72 ± 0.42 kcal/mol
3,SAGGMKKKLLILVDSNNPNIPLEKIKEFFKKKGFDEVETLSLENIPPEKAIELAKKEKKPLLIIPTSSAGGS [r16_94_TrMRF],1.97 ± 0.063 kcal/mol
4,KKITVVRPAKTLEEVEQAVRDLLKELNIPEGTKVEVKVEEIPETGAFVATVTVTLPNGEKIEVTVLFPKLFS [r1_84_TrMRF],2.68 ± 0.09 kcal/mol
5,SAGGSAGGSAMKVVSVEAAPGQTVTVRVLVEDPETQELYELEVTVTVTAPEPVTVELPPEASAGGSAGGSAG [r3_271_TrROS_Hall],2.03 ± 0.23 kcal/mol
6,SAGGSAETTKDPNKPVETISTPGTLIKITKYPDSYNATIEPLDENGNVTGSESGPIKSIEEVLRQLSAGGSA [r15_288_JUSTAS],0.216 ± 0.12 kcal/mol
7,SAGGSPTVTFDPETGAVTVTVNGQTQTAYIPPGDKVTLTVTFQSGGSGVPFTLELEVTVTPPKPLKSAGGSA [r2_116_TrMRF],2.17 ± 0.12 kcal/mol
8,SSSIKTSTTTSTEPATGTTTTTTTVTYPDGTTTTTTTTTLPDGTTTVTTTTTPPDGSVTSTTTTLTSLTTTS [r1_461_JUSTAS],0.904 ± 0.17 kcal/mol
9,SAGGSAGGMKITTPDGKEITFPPKDETVTLTITVKLEDGTTVTIEIKFNKNGEIVEIKISIEKKSAGGSAGG [r6_530_TrROS_Hall],1.99 ± 0.17 kcal/mol
10,SAGGSAGGMKIEIIEEKDGYIVLRVSPEDLEALEKLGFEIVSVEEVEGELYIVIKVSPEALKALSAGGSAGG [r6_108_TrROS_Hall],3.55 ± 0.066 kcal/mol
11,SAKMKLPEGAKPIAEKDGITIVEVPNKVIIRVRLPDGKEVTLTFPKSDLEEIEALIRELKDAGIEEIEFSAG [r14_12_TrROS_Hall],0.815 ± 0.07 kcal/mol
12,SMSPEIVEKIRKFLEEKGYSFTVERIPETGKVIINIDVRGNGKTRRVNIVFDENDPEKGIDLIKEIIESGSA [r9_42_TrMRF],4.22 ± 0.085 kcal/mol
13,SAGGSAGGSAGWFTVTMMFLFPNGWAIKITWTFRMDENGNLKLEWEVEIEPVPPLKPGDPSAGGSAGGSAGG [r11_728_TrROS],> 6 kcal/mol
14,SAGSPIEELAKKIAEPKYKEEKKPNLTIKVEIEVTVTTSVPVKLPNGEPAYKTTEVKIKVKLTINIPEGSAG [r5_297_JUSTAS],3.39 ± 0.46 kcal/mol
15,SNIEIEPYQPGEPREYEIPPGKLKITFYQDPGPMYIRVKDPGNGEPVEIPIPMERGDWDNAAKKILKAIKSA [r9_982_TrROS],0.802 ± 0.32 kcal/mol
16,SAGMSVTLEFTDPDKSAEELKEEIMKKVGIPENYPVKVTETPSPADGYTLTITVDDPKVAEAIKKALSSAGG [r19_215_JUSTAS],1.57 ± 0.066 kcal/mol
17,SAGGSAGGGSLTVTTDPDGTQTVTLPDGRTFTFTNPYGVTRLVRARPDDGFEVWLQVDGKWYPLSAGGSAGG [r6_903_TrMRF],1.57 ± 0.031 kcal/mol

# Experiment: folding stability dG unfold from trypsin proteolysis; higher = more stable
# Method in brief: as §1
row,Sequence,folding stability dG unfold
1,SAGGMPGIRPVLRIRARVRFRGPEREEEIEIELHPEALEAGLTAEELARLRAEELGYEVEIEEIEIESAGGS [r16_554_TrMRF],1.26 ± 0.097 kcal/mol
2,EEEVEELAKKLEEELRKKLRELFPEMSEEDIKIEEIEVEKTVTVEVNGEKKEIKVKVKIKMSEEVLERLKKS [r1_299_TrROS_Hall],1.98 ± 0.14 kcal/mol
3,SAGGMKKKLLILVDSNNPNIPLEKIKEFFKKKGFDEVETLSLENIPPEKAIELAKKEKKPLLIIPTSSAGGS [r16_94_TrMRF],1.376 ± 0.012 kcal/mol
4,KKITVVRPAKTLEEVEQAVRDLLKELNIPEGTKVEVKVEEIPETGAFVATVTVTLPNGEKIEVTVLFPKLFS [r1_84_TrMRF],2.26 ± 0.092 kcal/mol
5,SAGGSAGGSAMKVVSVEAAPGQTVTVRVLVEDPETQELYELEVTVTVTAPEPVTVELPPEASAGGSAGGSAG [r3_271_TrROS_Hall],1.89 ± 0.15 kcal/mol
6,SAGGSAETTKDPNKPVETISTPGTLIKITKYPDSYNATIEPLDENGNVTGSESGPIKSIEEVLRQLSAGGSA [r15_288_JUSTAS],-0.615 ± 0.16 kcal/mol
7,SAGGSPTVTFDPETGAVTVTVNGQTQTAYIPPGDKVTLTVTFQSGGSGVPFTLELEVTVTPPKPLKSAGGSA [r2_116_TrMRF],1.45 ± 0.074 kcal/mol
8,SSSIKTSTTTSTEPATGTTTTTTTVTYPDGTTTTTTTTTLPDGTTTVTTTTTPPDGSVTSTTTTLTSLTTTS [r1_461_JUSTAS],1.24 ± 0.1 kcal/mol
9,SAGGSAGGMKITTPDGKEITFPPKDETVTLTITVKLEDGTTVTIEIKFNKNGEIVEIKISIEKKSAGGSAGG [r6_530_TrROS_Hall],1.52 ± 0.07 kcal/mol
10,SAGGSAGGMKIEIIEEKDGYIVLRVSPEDLEALEKLGFEIVSVEEVEGELYIVIKVSPEALKALSAGGSAGG [r6_108_TrROS_Hall],3.58 ± 0.095 kcal/mol
11,SAKMKLPEGAKPIAEKDGITIVEVPNKVIIRVRLPDGKEVTLTFPKSDLEEIEALIRELKDAGIEEIEFSAG [r14_12_TrROS_Hall],0.876 ± 0.024 kcal/mol
12,SMSPEIVEKIRKFLEEKGYSFTVERIPETGKVIINIDVRGNGKTRRVNIVFDENDPEKGIDLIKEIIESGSA [r9_42_TrMRF],3.51 ± 0.1 kcal/mol
13,SAGGSAGGSAGWFTVTMMFLFPNGWAIKITWTFRMDENGNLKLEWEVEIEPVPPLKPGDPSAGGSAGGSAGG [r11_728_TrROS],4.38 ± 0.51 kcal/mol
14,SAGSPIEELAKKIAEPKYKEEKKPNLTIKVEIEVTVTTSVPVKLPNGEPAYKTTEVKIKVKLTINIPEGSAG [r5_297_JUSTAS],3 ± 0.16 kcal/mol
15,SNIEIEPYQPGEPREYEIPPGKLKITFYQDPGPMYIRVKDPGNGEPVEIPIPMERGDWDNAAKKILKAIKSA [r9_982_TrROS],0.81 ± 0.14 kcal/mol
16,SAGMSVTLEFTDPDKSAEELKEEIMKKVGIPENYPVKVTETPSPADGYTLTITVDDPKVAEAIKKALSSAGG [r19_215_JUSTAS],1.26 ± 0.037 kcal/mol
17,SAGGSAGGGSLTVTTDPDGTQTVTLPDGRTFTFTNPYGVTRLVRARPDDGFEVWLQVDGKWYPLSAGGSAGG [r6_903_TrMRF],0.96 ± 0.022 kcal/mol

# Experiment: folding stability dG unfold from chymotrypsin proteolysis; higher = more stable
# Method in brief: as §1
row,Sequence,folding stability dG unfold
1,SAGGMPGIRPVLRIRARVRFRGPEREEEIEIELHPEALEAGLTAEELARLRAEELGYEVEIEEIEIESAGGS [r16_554_TrMRF],2.01 ± 0.068 kcal/mol
2,EEEVEELAKKLEEELRKKLRELFPEMSEEDIKIEEIEVEKTVTVEVNGEKKEIKVKVKIKMSEEVLERLKKS [r1_299_TrROS_Hall],2.09 ± 0.33 kcal/mol
3,SAGGMKKKLLILVDSNNPNIPLEKIKEFFKKKGFDEVETLSLENIPPEKAIELAKKEKKPLLIIPTSSAGGS [r16_94_TrMRF],2.21 ± 0.04 kcal/mol
4,KKITVVRPAKTLEEVEQAVRDLLKELNIPEGTKVEVKVEEIPETGAFVATVTVTLPNGEKIEVTVLFPKLFS [r1_84_TrMRF],2.95 ± 0.081 kcal/mol
5,SAGGSAGGSAMKVVSVEAAPGQTVTVRVLVEDPETQELYELEVTVTVTAPEPVTVELPPEASAGGSAGGSAG [r3_271_TrROS_Hall],2.47 ± 0.082 kcal/mol
6,SAGGSAETTKDPNKPVETISTPGTLIKITKYPDSYNATIEPLDENGNVTGSESGPIKSIEEVLRQLSAGGSA [r15_288_JUSTAS],0.597 ± 0.067 kcal/mol
7,SAGGSPTVTFDPETGAVTVTVNGQTQTAYIPPGDKVTLTVTFQSGGSGVPFTLELEVTVTPPKPLKSAGGSA [r2_116_TrMRF],2.48 ± 0.061 kcal/mol
8,SSSIKTSTTTSTEPATGTTTTTTTVTYPDGTTTTTTTTTLPDGTTTVTTTTTPPDGSVTSTTTTLTSLTTTS [r1_461_JUSTAS],0.655 ± 0.043 kcal/mol
9,SAGGSAGGMKITTPDGKEITFPPKDETVTLTITVKLEDGTTVTIEIKFNKNGEIVEIKISIEKKSAGGSAGG [r6_530_TrROS_Hall],2.43 ± 0.061 kcal/mol
10,SAGGSAGGMKIEIIEEKDGYIVLRVSPEDLEALEKLGFEIVSVEEVEGELYIVIKVSPEALKALSAGGSAGG [r6_108_TrROS_Hall],3.5 ± 0.037 kcal/mol
11,SAKMKLPEGAKPIAEKDGITIVEVPNKVIIRVRLPDGKEVTLTFPKSDLEEIEALIRELKDAGIEEIEFSAG [r14_12_TrROS_Hall],0.762 ± 0.12 kcal/mol
12,SMSPEIVEKIRKFLEEKGYSFTVERIPETGKVIINIDVRGNGKTRRVNIVFDENDPEKGIDLIKEIIESGSA [r9_42_TrMRF],4.5 ± 0.076 kcal/mol
13,SAGGSAGGSAGWFTVTMMFLFPNGWAIKITWTFRMDENGNLKLEWEVEIEPVPPLKPGDPSAGGSAGGSAGG [r11_728_TrROS],6.21 ± 0.35 kcal/mol
14,SAGSPIEELAKKIAEPKYKEEKKPNLTIKVEIEVTVTTSVPVKLPNGEPAYKTTEVKIKVKLTINIPEGSAG [r5_297_JUSTAS],3.63 ± 0.48 kcal/mol
15,SNIEIEPYQPGEPREYEIPPGKLKITFYQDPGPMYIRVKDPGNGEPVEIPIPMERGDWDNAAKKILKAIKSA [r9_982_TrROS],0.454 ± 0.27 kcal/mol
16,SAGMSVTLEFTDPDKSAEELKEEIMKKVGIPENYPVKVTETPSPADGYTLTITVDDPKVAEAIKKALSSAGG [r19_215_JUSTAS],1.742 ± 0.016 kcal/mol
17,SAGGSAGGGSLTVTTDPDGTQTVTLPDGRTFTFTNPYGVTRLVRARPDDGFEVWLQVDGKWYPLSAGGSAGG [r6_903_TrMRF],1.88 ± 0.053 kcal/mol
